Source: the DeepSol protein solubility set

assay: soluble on expression in E. coli; label from the status in PepcDB or PDB records

Sequence | soluble on expression in E. coli
MSLNEHKHNYNMKINCLLALALSASSLAAQDAVIRVDAGKVENKITPYLYGACMEDVNHEIYGGLYDQKIFGESFEEPVSMDNFIGFTRCEGVWKLQDGQLSVQAHPGAKLVYDDTQLSDGTVGVDLKFTNGTSSSNNAGLLLRVGEYGGGADNFDGYEVSLFADGKRLLLGKHLHNWQELKTTPVDVDPMQWNRMEVKLDGDELVILLNDCEVLRFEDRDTGLRNGKVAFRNWGADVSYRSLTIGSNTPVKLLTKATPQVSGMWDAFADLTAAAVYKQIADKPFHGRYAQEIEYLVGTGKVGIANRSLNRWGISVRQGEKKTGSLYLKGKAEVRVALQSVDGEKEYAVQCIRANAGDWKKYTFELTPDKTDENARLAIYLEEKGRIQVDMVTLMNGADRQFCGLPLRNDIGQAMVDQGLRFLRYGGTMVNAPEYRFKKMIGDRAERPPYKGHWYTYSTNGFGIEDFLHFCEKAGFMPAYAVNVEESAQDMADMIEYLNGSVDTKWGKKRAENGHPEPYGLKYLEIGNEEVIWGDIEADYQHYIDRFNDIYEAVHAKDPEVQFIHSAWWRPESPNMEKVFKALDGKAAYWDYHPWTDDLGSHVNIDRELTDMKAKFLKWNPKTSMRCAIFEENGNLHNVQRAIVHATVQNVVRRHGDFILTTCAANALQPYLQNDNGWDQGQIFFTSGQVWGMPTFYAQQMSSAHHHPLRLWSETVGELDMTATTNEARDEVILHVVNTSSEVRETQVSLSGFIPKGNMEIYTLSGELNDENLPDTPTWILPKATWKQAPGSDFTYSFPGYSYTIVVLKEGHHHHHH | soluble
MVALFPSSPAEDLLAEGPCVMTGKGLHQLLLDRWGYSYGLQLRRTQGKIFLQIMWKYLEQASFPMDEGEYFSHLNEVASYLVALGAAEAIAQTIRETREKPRLGKAVSIPIELGARASEWFPDLEHHHHHH | soluble
GPGTFGTAKARYDFCARDRSELSLKEGDIIKILNKKGQQGWWRGEIYGRIGWFPSNYVEEDYSEYLPETGGGSGSSMTYKLILNGKTLKGETTTEAVDAATAEKVFKQYANDNGVDGEWTYDDATKTFTVTEHSLEHHHHHH | soluble
MADKLAFTTADLVTCLICIREFDTKTRKPKVLHCGHTVCEECTDNLRDFNAPLLVVRCPTCRQFTKRPVAESCNTNFQLMGYLAEKEKFEREKKAKGGKPKKPDQVLTLKMARSNRMEIHVASKKDLEGPELYLRKDSEGNTHIVVAGLTGSPAEVMKFITENGISIETGVLMPQVVYDEGRTRGGTEKFAKVNSMAAGQSAIKCTKPPVKLEELEFHKTFELKVSEESGSLKMELVQKEEVPKNGFGVFEGCMTKPSAKRLKEFTDSCPGTSAEDEVQVIEPEPLPKRRRTRK | not soluble
MGSDKIHHHHHHDDPFYAPVYPEAPPTKIAATGSIYQDSQAASLYSDIRAHKVGDIITIVLKEATQAKKSAGNQIKKGSDMTLDPVYAGGSNLSLGGIPLDLRYKDSMNTKRESDADQSNSLDGSISANIMQVLNNGNLVVRGEKWISINNGDEFIRVTGIVRSQDIKPDNTIDSTRMANARIQYSGTGTFAEAQKVGWLSQFFMSDWWPF | not soluble
MSLKQLVVKIETDNGIIGWGEAQSPVSPNTTATIIKDIVEPLTIGKDIYDVESIWHNNYSAKRERGHYTGFYIDAICGVDIAIWDAIGKSLKMPTCKAMGGAHRKSVALYNGIGGTEPEEVADQAEWSVSKGYKFVKMHLKETLEKDIEIARKVRERVGDSIGIMIDVHMGFDTFNVTKLGKELEKLNLLWLESPSDPTDIPGLCEISRSLDIPIANGEWTRTKYEMREIFEKRAYDISMPDIARTGLTGGKQIASIAQLYNIPIAPHVGGGGIVSVASTLQFSLNTPNFLIMEHSEQGHAVKAMILSESFDAENGQYSLPNKPGLGIDVDENKLEKYKINPSEGHHHHHH | soluble
SSTHVAGLGLDKMKLGNPQSFLDQEEADDQQLLEPEAWKTYTERRNALREFLTSDLSPHLLKRHHARMQLLRKCSYYIEVLPKHLALGDQNPLVLPSALFQLIDPWKFQRMKKVGTAQTKIQLLLLGDLLEQLDHGRAELDALLRSPDPRPFLADWALVERRLADVSAVMDSFLTMMVPGRLHVKHRLVSDVSATKIPHIWLMLSTKMPVVFDRKASAAHQDWARLRWFVTIQPATSEQYELRFRLLDPRTQQECAQCGVIPVAACTFDVRNLLPNRSYKFTIKRAETSTLVYEPWRDSLTLHTKPEPLEGPALSHSV | soluble
MKTIHIRELADWLDGALQAARFKDYCPNGLQVEGKAEIAHIITGVTASEALLRAAIERGADAVLVHHGWFWRNEDRRVLGPRRTRLALALGHELNLLAYHLPLDAHPQWGNNAQLARVLGLQAETGPDGAPRTCGADNLVWLGSAPGVQTVAQLQQRVAERLGRTPLVVGEPDRPVRRVAWCTGGAQGMLADAVDAGADAYITGEASESTVHLARETGVAFVGAGHHATERYGVQALGEAVARQFGIRVEFIDIDNPVLEHHHHHH | not soluble
MQKSKRNAKKKAVSTREKSARSSRGTNKSQRSARSKMAKPRTAETREDAYSCHRTMEEKSTNQQYSALSVRSETTSKVKKLPSKLDASLSARKKGKKESNEEDKKMRDSERQKREKKEVPKEMRQSMMGSVFEEIEGPVSPAPLEKDENKMEWKIDVDPVVLTGDQRMSDVLGKMKDLKKNSGWKKCKVLKANEKTPDNDDEPTEESIYLSARVLQLVKMESLISKEVSKEDQEILRGYCRSNDHKDKVEPIFEAIAVSILEKVASKNEFIRNVSIPGQLRMFAVDENKSKFSTMALLIVRCDLFYYSWNKPALDDEDQLDPTWANMTRRPSVTPPDSQ | not soluble
MDYVCSVVFICQSFDLIINRRVISFKKNSLFIVSDKIRRELPVCPSKLRIVDIDKKTCLSFFIDVNNELPGKFTLDKNGYIAEEEPPLSLVFSLFEGIKIADSHSLWLKERLCISLLAMFKKRESVNSFILTNINTFTCKITGIISFNIERQWHLKDIAELIYTSESLIKKRLRDEGTSFTEILRDTRMRYAKKLITSNSYSINVVAQKCGYNSTSYFICAFKDYYGVTPSHYFEKIIGVTDGINKTID | not soluble
MLIFGVIMVTIIVLFHPILTNQRDTIVTSTFKEIASDACYYINLGVKVEDYEHEPLNNLVGNVKCNFLGISVDSTTGEIRVTLKFEVNGNAQDFASGIIEYIKRRITEIRGFTITDKGEIFYRDSKITIEILTLEHHHHHH | not soluble
MSLKIIAFYLPQFHQIKENDRWWGKGFTEWTNTKSAQPLFSGHYQPREPYQDFYYDLTTPSVRKWQAEIAKAYGIYGFCYYHYWFKGKRLLETPFNEVLKMKEPDFPFCLSWANEPWTKSWDGLDKHILMPQDYGDISDWKEHFDYLLQAFQDERYIYIDDKPLFIIYRPGHIPDCEKMLNYWNALARENGLKGIYFAETLNSFPLPNINGFDASIQFEPFYTIAHDSSSDINKVIYDSDMQLNVWDYDKVWMYILQRSLPKKKTFPGAFVDWDNTARRKNANSSIFVGSTPEKFTIYLSKQIHRTYSFYNSEFLFINAWNEWAEGTYLEPDKKYGFSYLEGVKNAIDRGMKAYKKDEGHHHHHH | soluble
MVPDRREQSKAKERLLEREEALAKHMSEREKRPPPKIDPPPSPKAPEPSKRVLKEKQAPLFVDTAVEGTLPPLSLLDPAEVKQKSYSPESLEAMSRLLEIKLKEFGVEVSVDSVHPGPVITRFEIQPAAGVKVSRISNLAKDLARSLAVISVRVVEVIPGKTTVGIEIPNEDRQMVRFSEVLSSPEYDEHKSTVPLALGHDIGGRPIITDLAKMPHLLVAGTTGSGKSVGVNAMLLSILFKSTPSEARLIMIDPKMLELSIYEGIPHLLCPVVTDMKEAANALRWSVAEMERRYRLMAAMGVRNLAGFNRKVKDAEEAGTPLTDPLFRRESPDDEPPQLSTLPTIVVVVDEFADMMMIVGKKVEELIARIAQKARAAGIHLILATQRPSVDVITGLIKANIPTRIAFQVSSKIDSRTILDQGGAEQLLGHGDMLYLPPGTGLPIRVHGAFVSDDEVHRVVEAWKLRGAPDYIEDILAGVDEGGGGGGSFDGGDGSGEGSEDDPLYDEAVRFVTESRRASISAVQRKLKIGYNRAARMIEAMEMAGVVTPMNTNGSREVIAPAPVRDKLHHHHHH | soluble
MGHHHHHHSHMYKFCANALKVILSLRGGVKVYNKENLPADSGFVIACTHSGWVDVITLGVGILPYQIHYMAKKELFQNKWIGSFLKKIHAFPVDRENPGPSSIKTPIKLLKEGEIVGIFPSGTRTSEDVPLKRGAVTIAQMGKAPLVPAAYQGPSSGKELFKKGKMKLIIGEPLHQADFAHLPSKERLAAMTEALNQRIKELENKLDQL | soluble
MANRIQEIALSDKNLGSKIKAVYKTERDIYVNGAPVRGRVFTASSEKQRDFEIFVPHLRNSQMLNGREEVKLIDPVARINVKRNNIGNSRSIDMVVYAKRLEVVGGNK | not soluble
GMSEPEVPFKVVAQFPYKSDYEDDLNFEKDQEIIVTSVEDAEWYFGEYQDSNGDVIEGIFPKSFVAVQG | soluble
MYLPDDSPAKRLLFQMVGNAINRNTQQLTQDLRAMPNWSLRFVYIVDRNNQDLLKRPLPPGIMVLAPRLTAKHPYDKVQDRNRKLYGRHITLNDGNSVKVVTISAGRDEGPDRDIIWEMFLENLEHHHHHH | soluble
MDWDDEYSHNSFDLHCLLNSFPGDLEFEQIFSDIDEKIEQNAASIKHCIKEIQSEINKQCPGVQLQTTTDCFEWLTNYNYSTSESSFISHGDLIKFFKTLQDLLKNEQNQEEMTLDLLWDLSCHSSVSFPSTLSGTSFHFLSRTSLHSVEDNSSMDVKSMWDDIRLHLRRFLVSKLQSHNEINNSQQKILLKKQCLQQLLFLYPESEVIIKYQNIQNKLLANLLWNCFPSYNRDSNLDVIAHGYQSTMLKLYSVIKEDFNTLCEILAPSSMVKFIKETYLDTVTEEMAKFLENFCELQFRENAVRVVKTSKSSSKHRGAVHALG | soluble
MREEFLEEIPLDAPPEEAKELRTEVMTLNVGPQHPSTHGVLRLMVTLSGEEVLEVVPHIGYLHTGFEKTMEHRTYLQNITYTPRMDYLHSFAHDLAYALAVEKLLGAVVPPRAETIRVILNELSRLASHLVFLGTGLLDLGALTPFFYAFRERETILDLFEWVTGQRFHHNYIRIGGVKEDLPEEFVPELKKLLEVLPHRIDEYEALFAESPIFYERARGVGVIPPEVAIDLGLTGGSLRASGVNYDVRKAYPYSGYETYTFDVPLGERGDVFDRMLVRIREMRESVKIIKQALERLEPGPVRDPNPQITPPPRHLLETSMEAVIYHFKHYTEGFHPPKGEVYVPTESARGELGYYIVSDGGSMPYRVKVRAPSFVNLQSLPYACKGEQVPDMVAIIASLDPVMGDVDR | soluble
MSLKHHHNHHGEAGFKRKVDYLDRPERSEVLSPEDFLQAMPIGKTASILDLGAGTGFLTIPAAKLVDNTVFALDLDAKMLELIESKAKEAGLANVETLEASMDDIPLEANSVDVVLASLVLHEADSLADVLREVSRVVKTGGYFASLEFDTKGTDLKGPPMEIQISAEKLKEELAGFGFEVVKNWQLDEGMYVSIAVKKEGHHHHHH | soluble
MCGIVGFIGEQDAKEILLKGLEKLEYRGYDSAGIAVQAENGVVVYKEKGRIAKLREIVDENVAASVGIGHTRWATHGVPSKVNAHPHQSTSKRFTLVHNGVIENYELVKKEYLQDVTFVSETDTEVIVQLMEQQVSTGLSVEEAFRNTLSLLHGSYAIGLLDAENPNMIYVAKNKSPLLVGVGDNFNVVASDAMAMLQVTDQFIELMDKEIVIVMKESITIKNLQGETIERAPFTAELDASDIEKGTYPHFMLKEIDEQPLVIRNIIQKYQDENGEIELDQDIRNAILDSDRIYIIACGTSYHAGLVGKQFIEKFAKMPVEVHVASEFSYNMPLLTERPFFIYISQSGETADSRAVLVQTNEMGHKALTITNVPGSTLSREADYTLPLYAGPEIAVASTKAYTAQLAVLSILAADIAKAKGEVLGFDLTHELGLVANAMIELCDQKEEMDALAKQFLATTRNCFFIGRSVDFYVGLEGALKLKEISYIQAEGFAGGELKHGTIALIENGTPVIALATQEHVNLGIRGNVKEVVARGANPCIISMKGLEMEGDSFVLPAVHEALAPLVAVIPLQLISYYAALHRECDVDKPRNLAKSVTVE | not soluble
